{
  "source": "patent US20180125995A1",
  "about": "“ANTI-STAPHYLOCOCCUS AUREUS ANTIBODY RIFAMYCIN CONJUGATES AND USES THEREOF” (priority 2014, published 2018)",
  "key": {"[1]": {"system": "USA300 derived from infected mouse kidneys, livers and lungs", "experiment": "FACS analysis of rF1 binding to USA300 from infected mouse tissues", "design": "species or system Staphylococcus aureus", "description": "(§1) For antibody staining of bacteria from infected mouse tissues, 6-8 weeks old female C57Bl/6 mice (Charles River, Wilmington, Mass.) were injected intravenously with 10^8 CFU of logphase-grown USA300 in PBS. Mouse organs were harvested two days after infection. Rabbit infective endocarditis (IE) was established as described in Tattevin P, et al. (2010) Antimicrobial agents and chemotherapy 54: 610-613. Rabbits were injected intravenously with 5×10^7 CFU of stationary-phase grown MRSA strain COL, and heart vegetations were harvested eighteen hours later. Treatment with 30 mg/kg of vancomycin was given intravenously b.i.d. 18 h after infection with 7×10^7 CFU stationary-phase COL.\n(§2) To lyse mouse or rabbit cells, tissues were homogenized in M tubes (Miltenyi, Auburn, Calif.) using a gentleMACS® cell dissociator (Miltenyi), followed by incubation for 10 min at RT in PBS containing 0.1% Triton-X100 (Thermo), 10 µg/mL of DNAseI (Roche) and Complete Mini protease inhibitor cocktail (Roche). The suspensions were passed through a 40 micron filter (BD) and bacteria were stained with mAbs as described above. […] During flow cytometry analysis, bacteria were gated for positive staining with mAb 702 from double fluorescence plots. […]"}, "[2]": {"system": "MRSA COL bacteria from heart vegetations", "experiment": "FACS analysis of rF1 binding to bacteria from rabbit infective endocarditis heart vegetations", "design": "species or system Staphylococcus aureus", "settings": "rabbit model of infectious endocarditis", "description": "as §1, §2"}, "USA300": {"system": "USA300", "experiment": "Uptake and killing of preopsonized USA300 by human PMN", "type": "cell-based, Staphylococcus aureus", "description": "(§3) (FIGS. 5A-C) Bacteria were preopsonized with huIgG1 mAbs rF1 (squares), 4675 anti-ClfA (triangles), or anti-herpes virus gD (circles). (FIG. 5A): Binding of mAbs to WT (USA300-Aspa) bacteria was assessed by flow cytometry, and expressed as mean fluorescent intensity (MFI). (FIG. 5B): CFSE-labeled, preopsonized WT (USA300-Aspa) bacteria were incubated with human PMN. Bacterial uptake was expressed as % of CFSE-positive PMN, after gating for CD11b-positive cells by flow cytometry. (FIG. 5C): Preopsonized WT (USA300-Aspa) bacteria were incubated with PMN to assess bacterial killing. Numbers of viable CFU per mL are representative of at least three experiments."}, "[3]": {"system": "S. saprophyticus, S. lugdunensis, S. simulans, S. carnosus, Streptococcus pyogenes, Bacillus subtilis, Enterococcus faecalis, Listeria monocytogenes", "experiment": "FACS analysis of rF1 binding to other staphylococcal and Gram-positive species", "settings": "flow cytometry", "description": "(§4) Whole bacteria were harvested from TSA plates or TSB cultures and washed with HBSS without phenol red supplemented with 0.1% IgG free BSA (Sigma) and 10 mM Hepes, pH 7.4 (HB buffer) Bacteria (20×10^8 CFU/mL) were incubated with 300 μg/mL of rabbit IgG (Sigma) in HB buffer for 1 h at room temperature (RT) to block nonspecific IgG binding. Bacteria were stained with 2 μg/mL of primary antibodies, including rF1 or isotype control IgG1 mAb gD:5237 (Nakamura G R, et al. (1993) J Virol 67: 6179-6191), and next with fluorescent anti-human IgG secondary antibodies (Jackson Immunoresearch, West Grove, Pa.). The bacteria were washed and analyzed by FACSCalibur® (BD)."}, "MRSA strain USA300": {"system": "MRSA strain USA300", "experiment": "Flow cytometry binding of mAbs to USA300 bacteria", "design": "species or system Staphylococcus aureus", "settings": "MFI", "description": "as §3, §4"}, "S. epidermidis": {"system": "S. epidermidis", "experiment": "FACS analysis of rF1 binding to S. epidermidis", "design": "species or system Staphylococcus epidermidis", "settings": "flow cytometry", "description": "as §4"}, "15 S. aureus strains": {"system": "15 S. aureus strains", "experiment": "FACS analysis of rF1 binding to S. aureus strains", "design": "species or system Staphylococcus aureus", "settings": "flow cytometry, all 15 strains tested", "description": "as §4"}},
  "data": [
    {"molecule": "rF1: recombinantly produced F1, fully human IgG1 anti-SDR monoclonal antibody binding S. aureus and S. epidermidis (antibody, V domains shown) VH: EVQLVESGGGLVQPGGSLRLSCAASGFTLSRFAMSWVRQAPGRGLEWVASINNGNNPYYARSVQYRFTVSRDVSQNTVSLQMNNLRAEDSATYFCAKDHPSSGWPTFDSWGPGTLVTVSS VL: DIQLTQSPSALPASVGDRVSITCRASENVGDWLAWYRQKPGKAPNLLIYKTSILESGVPSRFSGSGSGTEFTLTISSLQPDDFATYYCQHYMRFPYTFGQGTKVEIKRTV", "values": [
      {"measurement": "binding to USA300 from infected mouse tissues", "setting": "[1]; kidneys, livers and lungs after systemic infection", "result": "strongly bound"},
      {"measurement": "duration of sustained binding to USA300 from mouse kidneys after infection", "setting": "[1]; mouse kidneys", "result": "at least 8 days"},
      {"measurement": "binding to MRSA COL from rabbit heart vegetations", "setting": "[2]", "result": "strongly bound"},
      {"measurement": "viability of USA300 in the absence of PMN", "setting": "USA300; no PMN", "result": "did not affect viability"},
      {"measurement": "bacterial killing by PMN (viability)", "setting": "USA300; preopsonized USA300, human PMN", "result": "potent killing"},
      {"measurement": "bacterial uptake by PMN", "setting": "USA300; preopsonized USA300, human PMN", "result": "increased uptake"},
      {"measurement": "binding to other staphylococcal and Gram-positive species", "setting": "[3]", "result": "did not bind"},
      {"measurement": "maximum binding relative to isotype-matched anti-ClfA mAb", "setting": "MRSA strain USA300", "result": "approximately 10 fold"},
      {"measurement": "binding to S. epidermidis", "setting": "S. epidermidis", "result": "detectable"},
      {"measurement": "binding to S. aureus strains", "setting": "15 S. aureus strains", "result": "potent binding activity"}
    ]}
  ]
}
